Measured values from US20230203197.

Target: alpha 1 antitrypsin (α1AT), P01009
Sequence (P01009 whole entry, looked up): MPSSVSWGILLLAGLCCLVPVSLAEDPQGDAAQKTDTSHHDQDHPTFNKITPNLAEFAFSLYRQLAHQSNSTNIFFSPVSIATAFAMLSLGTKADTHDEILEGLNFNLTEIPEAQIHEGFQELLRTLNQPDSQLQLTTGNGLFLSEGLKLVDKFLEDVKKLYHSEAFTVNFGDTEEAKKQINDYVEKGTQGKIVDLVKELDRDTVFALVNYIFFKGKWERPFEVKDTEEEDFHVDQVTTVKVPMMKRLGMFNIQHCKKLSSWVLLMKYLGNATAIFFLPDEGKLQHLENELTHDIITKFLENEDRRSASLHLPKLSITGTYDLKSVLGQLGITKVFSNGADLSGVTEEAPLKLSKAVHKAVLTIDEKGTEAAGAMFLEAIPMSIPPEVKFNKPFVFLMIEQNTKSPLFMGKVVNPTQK

B1: neutrophil proteinase 3 (PR3), purified native human PR3 (protein)
chain: IVGGHEAQPHSRPYMASLQMRGNPGSHFCGGTLIHPSFVLTAAHCLRDIPQRLVNVVLGAHNVRTQEPTQQHFSVAQVFLNNYDAENKLNDVLLIQLSSPANLSASVATVQLPQQDQPVPHGTQCLAMGWGRVGAHDPPAQVLQELNVTVVTFFCRPHNICTFVPRRKAGICFGDSGGPLICDGIIQGIDSFVIWGCATRLFPDFFTRVALYVDWIRSTLR
enzymatic activity of PR3 (fluorescent substrate Abz-VADnVADYQ-YNO2): the addition of alpha 1 anti-trypsin (1AT) which is a natural PR3 inhibitor did not induce any degradation of the PR3 substrate
